Experimental data as given in patent publication US5352772A, “75 Kilodalton interleukin-2 receptor proteins and their uses” (The Trustees of Dartmouth College, priority 1986, dated 1994).

Experiment: IL-2 binding affinity of the separate receptor chains
Design: species or system human
Settings: read-out: Kd of the chain for IL-2; each chain expressed separately
Experimental: Monoclonal antibodies reactive with the Tac epitope were made available by Dr. Ellis Reinherz (1HT4; IgG2a Dana-Farber Cancer Center, Boston Mass.). IL-2 and anti-Tac ware radioiodinated using lactoperoxidase-glucose oxidase (Enzymobeads, Biorad, Richmond, Calif.) according to the manufacturer's instructions. The specific activity of anti-Tac was 5.3×10^4 CPM/pmole. […] Binding of both ligands to whole cells was performed, as described in Robb et al., Vol 154 J. Exp. Med., p. […] After 20-min incubation at 37° C., the tubes were centrifuged (8,500×g, 80s), the tips of the tubes containing the cell pellet were severed and the cell-bound and free radioactivity were determined by solid scintillation counting. The calculated values for the number of binding sites per cell were derived by Scatchard analysis of equilibrium binding data after subtraction of nonspecific binding determined in the presence of 150-fold molar excess of unlabeled ligand. […]
Particularly convincing in this regard is the finding that the chain present in limiting amounts dictates the number of high affinity receptors, and either α or β chains can function in this role. […] In contrast, YT cells express […] in excess, and high affinity receptors are detected only when the cells are induced to express β chains.

B1: β chain: previously isolated 55,000 dalton IL-2 receptor protein bearing the Tac epitope (protein, UniProt P01589 22-272, looked up)
Interleukin-2 receptor …: ELCDDDPPEIPHATFKAMAYKEGTMLNCECKRGFRRIKSGSLYMLCTGNSSHSSWDNQCQCTSSATRNTTKQVTPQPEEQKERKTTEMQSPMQPVDQASLPGHCREPPPWENEATERIYHFVVGQMVYYQCVQGYRALHRGPAESVCKMTHGKTRWTQPQLICTGEMETSQFPGEEKPQASPEGRPESETSCLVTTTDFQIQTEMAATMETSIFTTEYQVAVAGCVFLLISVLLLSGLTWQRRQRKSRRTI
Q: With B1 as the molecule, how does the Kd read?
A: 10 nM
